US20230071609A1 (Genentech, published 2023)

Legend:
[1] = target: T1, untagged APOL1-G0, KIK variant, transiently expressed (COS cells) (human, UniProt O14791 29-398); assay: immunofluorescence on transfected COS cells, 1 µg/ml; grade
T1 construct: Origene SC109941 clone with E150K, M228I, R255K
T1 chain: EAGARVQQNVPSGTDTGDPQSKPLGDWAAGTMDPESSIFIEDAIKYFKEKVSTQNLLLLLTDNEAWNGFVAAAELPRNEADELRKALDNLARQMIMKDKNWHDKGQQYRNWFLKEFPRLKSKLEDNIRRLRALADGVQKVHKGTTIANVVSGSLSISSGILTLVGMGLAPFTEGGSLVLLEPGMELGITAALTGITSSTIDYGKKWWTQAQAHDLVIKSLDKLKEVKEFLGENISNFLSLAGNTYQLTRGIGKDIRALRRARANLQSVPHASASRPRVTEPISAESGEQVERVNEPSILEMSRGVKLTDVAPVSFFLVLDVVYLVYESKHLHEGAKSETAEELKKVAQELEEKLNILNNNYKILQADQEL

APOL6-myc-FLAG = target: T2, APOL6-myc-FLAG (human, UniProt Q9BWW8 1-343); assay: immunofluorescence on transfected COS cells; grade
T2 construct: whole, on cells; In fixed, permeabilized transfected COS cells; untagged APOL6 in the western blots; not shown: C-terminal myc-FLAG tag
T2 sequence (looked up): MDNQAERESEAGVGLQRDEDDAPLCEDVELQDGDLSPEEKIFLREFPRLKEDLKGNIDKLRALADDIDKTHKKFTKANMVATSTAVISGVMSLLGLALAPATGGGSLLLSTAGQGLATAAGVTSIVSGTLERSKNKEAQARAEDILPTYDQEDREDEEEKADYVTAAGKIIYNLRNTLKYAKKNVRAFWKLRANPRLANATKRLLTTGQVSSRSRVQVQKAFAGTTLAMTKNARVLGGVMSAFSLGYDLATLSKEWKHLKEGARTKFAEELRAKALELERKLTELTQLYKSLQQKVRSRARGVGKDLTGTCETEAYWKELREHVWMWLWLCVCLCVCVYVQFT
Description: COS cells were transfected as in FIG. 31A except APOL1 and APOL2 were also C-terminally myc-FLAG tagged. Overlays of APOL with epitope tags: either mouse anti-FLAG-M2 or mouse anti-myc 9E10 for anti-APOL1 rabmabs; or rabbit anti-Myc 71D10 in conjunction with mouse anti-APOL1. Signals indicate the two antibodies overlap (i.e. anti-APOL1 cross-reacts with that APOL); signals (epitope tag only) indicate no cross-reactivity. Alexa647 anti-rabbit or mouse were used for the tags to rule out the possibility that any colocalization was a bleed-through artifact. Sparsely transfected areas were imaged to permit evaluation of background staining in adjacent untransfected cells—DAPI nuclear staining identifies both untransfected and transfected cell nuclei. […] Note that none of the antibodies cross-reacted with the more distantly related APOL6. *, APOL2-myc-FLAG is presumably misfolded, since it is not as cross-reactive as untagged APOL2 (compare FIG. 31A) with several antibodies. Commercial antibodies are Sigma HPA018885, Epitomics EPR2907 (2) (Epito) and Proteintech 11486-2-AP (Ptech).
Cells were plated on LabTekII (Nalge Nunc 154534) slides and fixed at 70-100% confluency. For mAb screening, cells were fixed/permeabilized for 5 min in −20° C. methanol (EMD MX0485-6). For all other experiments, cells were fixed in 3% paraformaldehyde in PBS (EMS 15710) for 20 mins at room temperature, quenched with 50 mM NH₄Cl in PBS for 10 mins, then permeabilized with 0.1% TX-100 in PBS for 4 mins or for 1h in saponin buffer [0.4% saponin (Sigma S7900), 1% bovine serum albumin (BSA; Sigma A2153), 2% fetal bovine serum (Seradigm) in PBS]. First antibodies (stored sterile at 4° C.) were applied for 1 h at room temperature, at 1 μg/ml for screening on transfected cells or at subsequently optimized concentrations for detecting endogenous APOL1. After 3×10 min washes in PBS (for Methanol or TX-100 protocols) or saponin buffer (saponin protocol), secondary antibodies were applied at 1.88 μg/ml for 1 h at room temperature, washed 3× and mounted under No. 1.5 coverslips in ProLong Gold with DAPI (4′,6-diamidino-2-phenylindole; Life Technologies P36931).

[2] = target: T3, circulating APOL1 in normal human serum (human, UniProt O14791 28-398); assay: cell-based or functional assay
T3 sequence (looked up): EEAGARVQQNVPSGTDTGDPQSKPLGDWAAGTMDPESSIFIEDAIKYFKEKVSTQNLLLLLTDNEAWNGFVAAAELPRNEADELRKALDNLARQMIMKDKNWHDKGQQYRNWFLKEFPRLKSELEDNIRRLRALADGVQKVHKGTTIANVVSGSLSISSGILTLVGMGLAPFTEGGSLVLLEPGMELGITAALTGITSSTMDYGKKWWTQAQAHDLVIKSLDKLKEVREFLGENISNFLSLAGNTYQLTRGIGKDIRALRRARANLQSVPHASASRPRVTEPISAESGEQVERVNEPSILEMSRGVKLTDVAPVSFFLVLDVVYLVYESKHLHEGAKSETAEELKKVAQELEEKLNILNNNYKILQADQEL

[3] = target: T3, circulating APOL1 in normal human serum; assay: summary of the Examples: trypanolysis blocking as proxy for serum APOL1
Procedure: The trypanolysis assay used herein to text specificity of antibodies for serum APOL1 is as follows. Trypanosoma brucei brucei were obtained from ATCC and cultured in HMI-9 media containing IMDM (Genentech), heat-inactivated (56° C. for 30 min) FBS (Seradigm IXL9/06807/GEN), 1% serum plus (Sigma 14008C), HMI-9 (Genentech) and 1% hypoxanthine (Genentech). Trypanosome lysis was performed by treating 1×10⁵ Trypanosomes with serial dilutions of NHS or recombinant APOL1 for 16 h in a total of 100 μl. Live cell read out was done by the Alamar Blue assay as per the manufacturer's protocol, (Thermo Fisher, DAL1100). Briefly 10 μl of Alamar Blue was added to each well, incubated at 37° C. for 4 h. Red fluorescence, indicating live trypanosomes, was measured on a SpectraMax® fluorimeter powered by SoftMAX® PRO with excitation at 530 nm and emission 590 nm. For the antibody blocking assay, 1% normal human serum was preincubated with 1-10 μg/ml of anti-APOL1 antibody or media at room temperature for 20 minutes followed by addition of trypanosomes. After 16 h, the Alamar Blue assay was performed as above and background values for media only were subtracted and % blocking calculated by normalizing to no antibody control.
Trypanosoma brucei brucei were obtained under MTA from ATCC and cultured in HMI-9 media containing IMDM (Genentech), heat-inactivated (56° C. for 30 min) FBS (Seradigm IXL9/06807/GEN), 1% serum plus (Sigma 14008C), HMI-9 (Genentech) and 1% hypoxanthine (Genentech). Trypanosome lysis was performed by treating 1×10⁵ Trypanosomes with serial dilutions of NHS or recombinant APOL1 for 16 h in a total of 100 μl. Live cell read out was done by the Alamar Blue assay as per the manufacturer's protocol (30) (Thermo Fisher, DAL1100). Briefly 10 μl of Alamar Blue was added to each well, incubated at 37° C. for 4 h. Red fluorescence, indicating live trypanosomes, was measured on a SpectraMax fluorimeter powered by SoftMAX PRO with excitation at 530 nm and emission 590 nm. For the antibody blocking assay, 1% normal human serum was preincubated with 1-10 μg/ml of anti-APOL1 antibody or media at room temperature for 20 mins followed by addition of trypanosomes.

[4] = target: T4, endogenous human APOL1 (wild-type immortalized podocytes; also JHH-1 cells, kidney and liver tissue) (human, UniProt O14791 28-398); assay: summary of the Examples: podocyte flow cytometry
T4 construct: whole, on cells; Cell or tissue and permeabilization are told under assay; also called podocyte APOL1; endogenous APOL1
T4 sequence (looked up): T3 sequence (looked up)
Procedure: Cells were harvested with 5 mM EDTA in PBS, washed once with growth media and twice with PBS. Approximately 0.5×10⁶/m1 of cells resuspended in PBS were incubated with anti-APOL1 antibodies for 1 h on ice. Following two PBS washes, 2 μg/ml of Alexa488 anti-mouse or anti-rabbit (Invitrogen A11029 and A21206, respectively) was used for 1 h on ice for detection. Cells were washed twice in PBS and resuspended in PBS with 1 μg/ml propidium iodide. Signals were read in a FACSCalibur3 (Becton Dickinson), with the exception of FIG. 8A and FIG. 14, which used a FACSCelesta, and data was analyzed using FlowJo v8.4.5. Mean fluorescence intensities were plotted in PRISM v7 after subtraction of secondary antibody alone background. For low pH experiments, cells were incubated with the antibodies in the presence of PBS pH 7.0 or PBS pH 5.5 for an hour on ice and detected with secondary antibodies at neutral pH.

B1: antibody 3.1C7 (antibody)
heavy: EVQLQQSGTVLSRPGASVKMSCKASGYTMTSYWMHWIKQRPGQGLEWIGAIYPGKSDIKYNQKFKDKAKLTAVTATSTAYMEINSLTNEDSAVYYCTNSIPFVYWGQGTLITVSAASTKGPSVYPLAPVCGDTTGSSVTLGCLVKGYFPEPVTLTWNSGSLSSGVHTFPAVLQSDLYTLSSSVTVTSSTWPSQSITCNVAHPASSTKVDKKIEPRGPTIKPCPPCKCPAPNAAGGPSVFIFPPKIKDVLMISLSPIVTCVVVDVSEDDPDVQISWFVNNVEVHTAQTQTHREDYNSTLRVVSALPIQHQDWMSGKEFKCKVNNKDLGAPIERTISKPKGSVRAPQVYVLPPPEEEMTKKQVTLTCMVTDFMPEDIYVEWTNNGKTELNYKNTEPVLDSDGSYFMYSKLRVEKKNWVERNSYSCSVVHEGLHNHHTTKSFSRTPGK
light: DIVMTQSPSSLTVTAGEKVTMSCKSSQSLLNSENQKKYLTWFQQKPGQPPKLLIYWTSTRYSGIPDRFTGSGSGTVFTLTISSVQADDLAVYYCQNDYSYPLTFGGGTKLEIKRADAAPTVSIFPPSSEQLTSGGASVVCFLNNFYPKDINVKWKIDGSERQNGVLNSWTDQDSKDSTYSMSSTLTLTKDEYERHNSYTCEATHKTSTSPIVKSFNRNEC
notes: Mouse mAb, cloned as murine IgG2a LALAPG; also called SRA-ID antibody 3.1C7
Does B1 bind [1]?
Result: binds

Does B1 bind (APOL6-myc-FLAG)?
Result: no binding (tested: 1 µg/ml)

And the “IC50 of blocking of serum APOL1-mediated trypanolysis (Alamar Blue)” value [2]?
Its value is 1 nM.

B2: antibody 3.2C11 (antibody, V domains shown)
VH: QVQLQQSGAELVRPGASVKLSCKALGYTFTDYEIHWVKQTPVHGLEWIGGIHPGNGGTAYNPKFKGKATLTADTSSSTASMELSSLTSEDSAVYYCTDWVDYWGQGTTLTVSS
VL: DVVVTQTPLSLPVNFGDQVSISCRSSQSLVNRHGITYLSWYLHKPGQSPQLLIYEISNRFSGVPDRFSGSGSGTDFTLKISTIKPEDLGMYYCFQGTHQPFTFGGGTKLEIKR
notes: Mouse mAb, cloned as murine IgG2a LALAPG
Does B2 bind [3]?
Result: binds

B3: antibody 3.4G10 (antibody, V domains shown)
VH: DVQLQESGPDLVKPSQSLSLTCTVTGYSITSGESWHWIRHFPGNELEWMGFIHYSGSANYNPSLKSRISITRDTSKNQFFLQLLSVTTDDTATYYCARSVYNYDGAWFPYWGQGTLVTVSA
VL: QIVLTQSPVIMSASPGERVTLTCSASSSVSSSYLNWYQLKPGSSPKVWIYRTSNLASGVPARFSGSGSGTSYSLTISSMEAEDAASYFCHQWSAYPPTFGGGTKLEIKR
notes: as for B2
What does the source list for B3?
binding result [3]: binds; binding result [4]: binds

B4: antibody 4.2C4 (antibody, V domains shown)
VH: QVQLQQSGPELVKPGASVKMSCKASGYTFTDYVISWVKQRTGQGLEWIGEMFPGSGTTYYTEKFRGKATLTADKSSNTAYMQLSSLTSEDSAVYFCARGTTADYWGQGTTLTVSS
VL: ENVLTQSPAIMSASLGEKVTMSCRASSSVNYMYWYQQKSDASPKLWIYYTSNLAPGVPARFSGSGSGNSYSLTISSMEGEDAATYYCQQFTSSPYTFGGGTKLEIKR
notes: as for B2
Does B4 bind [1]?
Result: binds

Does B4 bind (APOL6-myc-FLAG)?
Result: no binding (tested: 1 µg/ml)

B5: rabbit monoclonal antibody 5.17H8 (antibody, V domains shown)
VH: QSLEESGGRLVTPGTPLTLTCTVSGIDLSSYAMGWVRQAPGKGLEWIGIISSSGSTHYASWAKGRFTISKTSTTVDLKITSPTTEDTATYFCARARAGSTYYTGYYFNLWGQGTLVTVSS
VL: AIEMTQTASPVSAAVGGTVTINCQASESIYSNLAWYQQKPGQRPKLLIYGASTLESGVPSRFKGSGSGTEYTLTISDLECDDAATYYCQSGYYGISAINNAFGGGTEVVVKG
notes: Rabbit mAb (Method #5), recombinant; also called rabmab 5.17H8
Does B5 bind (APOL6-myc-FLAG)?
Result: no binding (tested: 1 µg/ml)
